# Data: PMC2702006 (The Febs Journal, 2009)
# B1: human Hsp90β T110I (natural protein)
# chain: not shown
# B2: human Hsp90β L24R (natural protein)
# chain: not shown
# B3: pyrene-labelled human Hsp90β E20C-C366A-A116N (natural protein)
# chain: not shown
# modifications: N-(1-pyrene)-maleimide label at position 20 (E20C)
# B4: human Hsp90β A116N (natural protein)
# chain: not shown
# Columns and labels:
# [1] = biological target: the molecule itself; test: cross-linking
# [2] = biological target: the molecule itself; test: cell-based or functional assay
# [3] = biological target: the molecule itself; test: FRET or BRET
Protein,binding result [1],other results
B1,binds,
B2,,ATPase activity relative to wild-type Hsp90β [2]: 6.2 % activity relative to wild-type Hsp90β
B3,,binding result [3]: binds
B4,binds,
